The text below walks through data of patent US20110124706A1, “SOCS3 Inhibition Promotes CNS Neuron Regeneration” (priority 2009, published 2011).

For this experiment, the system named is injured optic nerve axons. The experiment can be described thus: optic nerve crush injury, axon regeneration assessed by CTB anterograde tracing. In kind it is in vivo, mice. Particulars: intravitreal 1 μl CNTF (1 μg/μl) immediately before and 3 days after injury. As to the method: We applied optic nerve crush injury to assess axon growth ability in adult CNS in different conditional floxed mice (Park et al., 2008 Science 322, 963-966). Intravitreal application of recombinant adeno-associated viruses expressing Cre (AAVCre) results in Cre-dependent reporter expression in more than 90% of RGCs. Regeneration was assessed in the injured optic nerve axons by using cholera toxin beta subunit (CTB), an anterograde tracer, which was injected into the vitreous of the retina following optic nerve injury two days prior to histological analyses. Neuronal survival was assessed using whole-mount staining of the retinal tissue by immunostaining with an anti-β-III tubulin antibody, a commonly used marker of RGCs.
We intravitreously injected 1 μl CNTF (1 μg/μl) immediately before injury and 3 days after injury (PBS injection was used as control).

Entries after “also recorded” stand apart in the source; their conditions may differ.

B1: ciliary neurotrophic factor (protein, UniProt P26441 1-200, looked up)
Ciliary neurotrophic factor: MAFTEHSPLTPHRRDLCSRSIWLARKIRSDLTALTESYVKHQGLNKNINLDSADGMPVASTDQWSELTEAERLQENLQAYRTFHVLLARLLEDQQVHFTPTEGDFHQAIHTLLLQVAAFAYQIEELMILLEYKIPRNEADGMPINVGDGGLFEKKLWGLKVLQELSQWTVRSIHDLRFISSHQTGIPARGSHYIANNKKM
Consider B1, for which the “numbers and lengths of regenerating axons” value (SOCS3 deleted mice) is listed as “dramatic increase; also recorded: further enhances”. Moreover, the axon regeneration result (control mice (SOCS3f/f with AAV-GFP)) is given as “limited degree of axon regeneration”.
